Measured values reported in publication PMC4791424, “The BAH domain of BAHD1 is a histone H3K27me3 reader” (Protein & Cell, 2016).
No end group written: not given here. me3 = trimethyl on lysine side chain

Key:
[1] = target: T1, BAH domain of human BAHD1 (BAH589-780), wild type (Homo sapiens, UniProt Q8TBE0); assay: Isothermal titration calorimetry (ITC), wild type BAH domain; type: binding; conditions: wild type BAHBAHD1
T1 construct: The BAH domain encompassing residues 589-780 of human BAHD1 was cloned in to a; 10xHis-SUMO (N, cleaved yes); made in house; host or cells: E. coli BL21 (DE3)
T1 sequence (Q8TBE0 589-780): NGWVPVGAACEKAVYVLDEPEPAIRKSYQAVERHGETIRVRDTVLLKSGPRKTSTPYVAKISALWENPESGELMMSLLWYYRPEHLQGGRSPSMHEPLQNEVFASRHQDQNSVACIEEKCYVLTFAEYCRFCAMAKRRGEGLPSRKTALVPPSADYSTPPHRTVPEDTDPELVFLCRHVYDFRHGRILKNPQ

[2] = target: BAH_(BAHD1) domain (aa 589–780), as used in ITC and HXMS (human) (UniProt Q8TBE0); assay: ITC; BAH_(BAHD1) domain titrated with histone peptides; optimized buffer condition (Tm 39°C in thermal shift assays)
[3] = target: BAH domain of human BAHD1 (residues 589-780), wild type (human) (UniProt Q8TBE0); assay: ITC; BAH domain (wild type or mutant) titrated with histone peptide; 15 °C, MicroCal iTC200; 20 mM Tris pH 8.5, 500 mM (NH)2SO4, 5% glycerol; "One Set of Binding Sites" fitting model
[4] = target: BAHD1 BAH domain, 589-780 (UniProt Q8TBE0); assay: isothermal titration calorimetry; conditions: reference: H3K27me3 peptide; sites S28
[5] = target: T2, BAH domain of human BAHD1 (residues 589-780), wild type (human, UniProt Q8TBE0 589-780); assay: ITC; BAH domain (wild type or mutant) titrated with histone peptide; 15 °C, MicroCal iTC200; 20 mM Tris pH 8.5, 500 mM (NH)2SO4, 5% glycerol; "One Set of Binding Sites" fitting model; conditions: both partners purified
T2 construct: BAHD1 (bromo adjacent homology domain containing protein 1), human, BAH domain, residues 589-780 of the full-length protein (1-780); also called BAH589-780; BAH_(BAHD1); source: E. coli BL21 (DE3), purified (HisTrap, tag cleaved by ULP1, Superdex G75); not shown: 10xHis-SUMO, N-terminal, cleaved
T2 sequence (looked up): T1 sequence (Q8TBE0 589-780)

## NH2-ARTKQTAR(me2s)KS-COOH [H31-10R8me2s, histone H3 peptide residues 1-10 with R8me2s]
[1]
  binding observed by ITC (in words): no bindings were observed

## ARTKQTARKSTGGK(ac)A-NH2 [H31-15K14ac, histone H3 peptide residues 1-15 with acetylated K14]
[1]
  binding observed by ITC (in words): no bindings were observed

## H3K27me3 peptide, H3 frame 19–34 (from UniProt P68431 20-35)
[2]
  fold reduction of binding against H3 (15-42)K27me3: 3.9 fold

## H3K27me1 peptide
[2]
  Kd: 2 mM

## H3K27me3 peptide, H3 frame 21–32 (from UniProt P68431 22-33)
[2]
  fold reduction of binding against H3 (15-42)K27me3: 7.8 fold

## H3_(1-15)K9me3 peptide (from UniProt P68431 2-16)
[2]
  Kd: 2.6 mM

## histone H3 (15-42) K27me1 peptide
[3]
  stoichiometry N: 1

## histone H3 (15-42) K27me3 S28ph peptide
[3]
  stoichiometry N: 1

## histone H3 15-42 H3K27me3S28ph peptide
[4]
  KD: weaker; reference 15.9

## histone H3 (15-42) K27me2 peptide
[3]
  stoichiometry N: 1.1

## histone H3 (15-42) K27me3 peptide
[3]
  stoichiometry N: 1

B1: histone H3 (19-34) K27me3 peptide (peptide)
peptide: QLATKAARKSAPATGG
modifications: trimethyl-lysine at K27 (K(me3))
notes: histone H3, residues 19-34 (A31: as in H3.1/H3.2); source: synthetic peptide (SciLight Biotechnology)
[5]
  Kd: 61.3 µM

B2: histone H3 (21-32) K27me3 peptide (peptide)
peptide: ATKAARK(me3)SAPAT
notes: histone H3, residues 21-32 (A31: as in H3.1/H3.2); source: synthetic peptide (SciLight Biotechnology)
[5]
  Kd: 124 µM
  stoichiometry N: 1.1
